Measurements reported in publication PMC8072984.

What was measured:
[1] = molecular target: sapC-PUMA chimera (saposin C linked to the BH3 domain of PUMA); assay: NMR titration; [1H-15N]-SOFAST-HMQC at 298 K, 600 MHz; 15N-labelled chimera at 100 µM mixed with unlabeled Bcl-xL-ΔTM (stock 900 µM, pH 6.8) at chimera:Bcl-xL molar ratios 1:0, 1:0.5, 1:1, 1:2; 10% D2O; slow exchange, the upper limit of KD estimated from the chemical shift difference assuming diffusion-controlled kon
Bcl-xL (Homo sapiens) = Bcl-xL (Homo sapiens) (UniProt Q07817); assay: isothermal titration calorimetry; settings: cited from earlier work
Sequence of Bcl-xL (Homo sapiens) (Q07817 whole entry): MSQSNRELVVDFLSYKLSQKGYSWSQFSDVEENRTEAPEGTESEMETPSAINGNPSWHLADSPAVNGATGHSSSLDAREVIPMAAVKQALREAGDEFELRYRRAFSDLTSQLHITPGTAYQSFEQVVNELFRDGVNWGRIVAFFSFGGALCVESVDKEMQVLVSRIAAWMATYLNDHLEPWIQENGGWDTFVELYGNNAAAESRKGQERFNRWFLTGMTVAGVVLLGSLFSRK

Sequence of sapC-PUMA chimera (saposin C linked to the BH3 domain of PUMA) (P07602 other isoform, or with tags, fused parts or gaps mutant): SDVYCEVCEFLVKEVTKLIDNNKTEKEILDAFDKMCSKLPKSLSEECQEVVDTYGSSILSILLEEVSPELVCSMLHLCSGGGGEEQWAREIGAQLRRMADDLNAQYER
Sequence of PUMA BH3 (Q9BXH1 130-156): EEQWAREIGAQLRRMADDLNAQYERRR

Substance	stoichiometry N [1]	Kd (Bcl-xL (Homo sapiens))
Human Bcl-xL-ΔTM (native amino acid sequence without the transmembrane domain) (domain or fragment)	1	
PUMA BH3 (from UniProt Q9BXH1)		3 nM
